In one experiment the target is T1, casp7_mouse Casp7 (UniProt P97864).
T1 sequence: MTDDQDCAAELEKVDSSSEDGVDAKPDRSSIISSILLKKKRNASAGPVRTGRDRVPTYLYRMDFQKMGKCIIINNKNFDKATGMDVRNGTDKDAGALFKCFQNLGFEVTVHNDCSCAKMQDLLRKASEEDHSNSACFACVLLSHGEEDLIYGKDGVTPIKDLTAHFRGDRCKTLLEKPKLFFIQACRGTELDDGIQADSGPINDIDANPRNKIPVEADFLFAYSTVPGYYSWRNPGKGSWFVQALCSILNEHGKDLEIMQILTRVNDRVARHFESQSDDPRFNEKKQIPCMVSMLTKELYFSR

Experiment [1] concerns the target T2, casp3_mouse Casp3 (UniProt P70677).
T2 sequence: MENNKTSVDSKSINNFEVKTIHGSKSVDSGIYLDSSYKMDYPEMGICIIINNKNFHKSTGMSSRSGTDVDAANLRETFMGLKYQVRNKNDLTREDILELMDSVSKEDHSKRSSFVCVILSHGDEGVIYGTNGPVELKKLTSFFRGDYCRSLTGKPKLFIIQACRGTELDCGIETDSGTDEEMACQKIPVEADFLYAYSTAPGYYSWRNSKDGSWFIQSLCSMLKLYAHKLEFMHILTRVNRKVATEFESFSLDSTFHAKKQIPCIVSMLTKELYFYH

Experiment [2] addresses T2, casp3_mouse Casp3. This is another data set of the same source.

Turning to “Small ribosomal subunit protein uS13 (Mus musculus) (from UniProt P62270) K88A”, the entries for the “effect of a mutation on the interaction” value in the experiment with casp7_mouse Casp7 and in the experiment with casp3_mouse Casp3 [1] were “decreasing interaction” and “increasing interaction”, respectively.

Turning to “Small ribosomal subunit protein uS13 (Mus musculus) (from UniProt P62270) Q87A”, the “effect of a mutation on the interaction” value in the experiment with casp3_mouse Casp3 [2] is listed as “increasing interaction”.
